Experimental data from paper PMC5868266.
pKd: −log10 of the molar value.

Assays:
[1] = biological target: equine C3b (horse (endogenous in equine plasma)); assay: SPR; same injections as a1, steady-state binding model; for SCIN-A on eqC3b the concentrations were subsaturating, so the fit used a constant Rmax based on the eqSCIN/eqC3b interaction
human C3b (human) [2] = biological target: human C3b (human) (UniProt P01024); assay: as above
[3] = biological target: equine C3b (horse (endogenous in equine plasma)); assay: SPR; Biacore T200; biotinylated C3b captured on a neutravidin-coupled CMD-200 chip (eqC3b 3,000 RU, human C3b 4,200 RU); SCIN injected 2 min at 2.5-2,500 nM, dissociation 3 min; 25 °C; 20 mM HEPES pH 7.3, 140 mM NaCl, 0.005% Tween 20; 30 μl/min; triplicate; 1:1 kinetic model (KD = kd/ka)
human C3b (human) [4] = biological target: human C3b (human) (UniProt P01024); assay: as above
[5] = biological target: equine alternative pathway C3 convertase (eqC3bBb) (horse (endogenous in equine plasma))
human C3b (human) [6] = biological target: human C3b (human) (UniProt P01024); assay: SPR

Row | Substance | pKd [1] | pKd (human C3b (human) [2]) | pKd [3] | koff [3] | kon [3] | pKd (human C3b (human) [4]) | koff (human C3b (human) [4]) | kon (human C3b (human) [4]) | inhibition of eqC3 cleavage (α-chain to α′) by fluid-phase eqC3bBb, eqSCIN 0.04-10 μM, densitometry of reducing SDS-PAGE [5] | pKd (human C3b (human) [6]) | koff (human C3b (human) [6]) | kon (human C3b (human) [6])
1 | equine staphylococcal complement inhibitor (eqSCIN) (natural protein) | 6.66 | 6.52 | 7.21 | 0.11 s⁻¹ | 1.8e+06 M⁻¹ s⁻¹ | 6.64 | 0.13 s⁻¹ | 550000 M⁻¹ s⁻¹ | 0.61 µM | – | – | –
2 | staphylococcal complement inhibitor SCIN-A (natural protein) | 4.54 | 6.85 | – | – | – | – | – | – | – | 6.85 | 0.092 s⁻¹ | 630000 M⁻¹ s⁻¹
